Data taken from article PMC8949118, “The Transcription Factor SpoVG Is of Major Importance for Biofilm Formation of Staphylococcus epidermidis under In Vitro Conditions, but Dispensable for In Vivo Biofilm Formation”.

Key:
[1] = target: T1, HAT-HA-SpoVG (Staphylococcus epidermidis 1457, UniProt Q8CML1 1-102); test: EMSA; 2-12 uM SpoVG, 2 mM Mg2+; 20 mM HEPES pH 8.0, 10 mM KCl, 2 mM MgCl2, 0.1 mM EDTA, 0.1 mM DTT, 50 ug/mL BSA, 10% glycerol; 200 fmol probe in 20 uL; 30 min room temperature; 2.5% agarose gel in cold TAE; settings: protein: recombinant; tags: N-terminal HAT-HA-linker; label: DYE682; blunt
T1 sequence: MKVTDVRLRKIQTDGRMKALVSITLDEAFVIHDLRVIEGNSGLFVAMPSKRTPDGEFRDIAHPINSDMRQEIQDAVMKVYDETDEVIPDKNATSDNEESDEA

[2] = target: T1, HAT-HA-SpoVG; test: competition EMSA; 10x or 20x excess over labeled icaA probe; 20 mM HEPES pH 8.0, 10 mM KCl, 2 mM MgCl2, 0.1 mM EDTA, 0.1 mM DTT, 50 ug/mL BSA, 10% glycerol; 200 fmol probe in 20 uL; 30 min room temperature; 2.5% agarose gel in cold TAE; settings: protein: recombinant; tags: N-terminal HAT-HA-linker; blunt
[3] = target: T1, HAT-HA-SpoVG; test: EMSA; 12 uM SpoVG, 2 mM Mg2+; 20 mM HEPES pH 8.0, 10 mM KCl, 2 mM MgCl2, 0.1 mM EDTA, 0.1 mM DTT, 50 ug/mL BSA, 10% glycerol; 200 fmol probe in 20 uL; 30 min room temperature; 2.5% agarose gel in cold TAE; settings: protein: recombinant; tags: N-terminal HAT-HA-linker; label: DYE682; blunt

B1: icaA probe (dsDNA)
DNA 1: TAACAACATTCTATTGCAAATTGAAATACTTTCGATTAGCATATGCTTTACAACCTAACTAACGAAAGGTAGGTGAAAAA
DNA 2: TTTTTCACCTACCTTTCGTTAGTTAGGTTGTAAAGCATATGCTAATCGAAAGTATTTCAATTTGCAATAGAATGTTGTTA
- binding result [1]: binds

B2: unlabeled icaA probe (dsDNA)
DNA 1: TAACAACATTCTATTGCAAATTGAAATACTTTCGATTAGCATATGCTTTACAACCTAACTAACGAAAGGTAGGTGAAAAA
DNA 2: TTTTTCACCTACCTTTCGTTAGTTAGGTTGTAAAGCATATGCTAATCGAAAGTATTTCAATTTGCAATAGAATGTTGTTA
- binding result [2]: binds

B3: secA p control probe (dsDNA)
DNA 1: AGTATAATTTTCTAACTATAAATGATAAGATATATTGTTGTAGGCCAAACAGTTTTTTAGCTAAAGGAGCGAACGAAATG
DNA 2: CATTTCGTTCGCTCCTTTAGCTAAAAAACTGTTTGGCCTACAACAATATATCTTATCATTTATAGTTAGAAAATTATACT
- binding result [3]: no binding
